Measurements taken from the supplement of paper PMC10126150.
± gives the standard deviation of the averaged measurements.
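Also: ATP exposure 15 min at 22 °C before imaging.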

These sequences were tested on ATP (assay: switch fluorescence ratio, 500 uM ATP over buffer (Cy3 cluster intensity, sum of 5 cycles each) (fold (ratio)); higher = stronger signal-on switching upon ATP binding; sequences stand for … in TCGTCGGCAGCGTCAGATGTGTATAAGAGACAGTTTTTTTTTTTTTTTTTTTTTTTTT…TC). Conditions: aptamer strand: ATP DNA aptamer (quencher-CACCTGGGGGAGTATTGCGGAGGAAGG + anchor), 100 nM annealed; ATP concentration: 500 uM.
In short: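 Cy3-labelled switching-strand clusters on a modified Illumina MiSeq flow-cell were annealed to 100 nM quencher-labelled ATP aptamer and imaged first in selection buffer, then after 15 min with 500 uM ATP at 22 °C. NaOH stripping and re-annealing separated each of five buffer/ATP cycles, and clusters outside 100-1000 RFU were excluded. The fluorescence ratio sums target-cycle Cy3 intensity over buffer-cycle Cy3 intensity per cluster and averages it per switch-domain sequence.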
TGGGTGTAGG showed a switch fluorescence ratio of 1.007 ± 0.004.
For TGGGTTAATT, the switch fluorescence ratio was 0.989 ± 0.026.
Sequence TGGGTTACGG has a switch fluorescence ratio of 0.983 ± 0.036.
TGGGTTAGCC was tested, and the switch fluorescence ratio was 1.01 ± 0.038.
TGGGTTCACT gave a switch fluorescence ratio of 1.02 ± 0.017.
For TGGGTTCGGA, the switch fluorescence ratio was 0.985 ± 0.023.
With TGGGTTGACG the switch fluorescence ratio was 0.998 ± 0.037.
For TGGGTTGAGG, the switch fluorescence ratio was 0.997 ± 0.016.
In the case of TGGGTTGCTG, the switch fluorescence ratio is reported as 1.05 ± 0.066.
In the case of TGGGTTTGTC, the switch fluorescence ratio is reported as 0.96 ± 0.049.
TGGGTTTTAT was tested, and the switch fluorescence ratio was 0.9954 ± 0.0094.
TGGGTTTTGA gave a switch fluorescence ratio of 1.01 ± 0.033.
In the case of TGGGTTTTGG, the switch fluorescence ratio is reported as 0.997 ± 0.052.
TGGGTTTTTT gave a switch fluorescence ratio of 1.01 ± 0.048.
Work on TGGTAAAACT yielded a switch fluorescence ratio of 1.06 ± 0.034.
TGGTAAATCG was tested, and the switch fluorescence ratio was 1.03 ± 0.038.
Work on TGGTAAATGT yielded a switch fluorescence ratio of 0.97 ± 0.013.
For TGGTAACGCG, the switch fluorescence ratio was 1 ± 0.014.
In the case of TGGTAAGGGG, the switch fluorescence ratio is reported as 1.12 ± 0.25.
In the case of TGGTAATAGG, the switch fluorescence ratio is reported as 1.0108 ± 0.00095.
With TGGTACACGT the switch fluorescence ratio was 0.989 ± 0.014.
TGGTACATCA showed a switch fluorescence ratio of 0.973 ± 0.054.
Work on TGGTACATTA yielded a switch fluorescence ratio of 1.34 ± 0.46.
TGGTACCACT gave a switch fluorescence ratio of 0.996 ± 0.014.
With TGGTACGGGA the switch fluorescence ratio was 0.999 ± 0.043.
TGGTACTTGT gave a switch fluorescence ratio of 1.01 ± 0.027.
TGGTAGAGTG was tested, and the switch fluorescence ratio was 0.987 ± 0.0027.
In the case of TGGTAGGGTA, the switch fluorescence ratio is reported as 1.03 ± 0.034.
Sequence TGGTAGGGTT has a switch fluorescence ratio of 0.969 ± 0.028.
TGGTAGGTA showed a switch fluorescence ratio of 0.987 ± 0.013.
TGGTAGTGCT showed a switch fluorescence ratio of 1.01 ± 0.018.
Work on TGGTAGTTTG yielded a switch fluorescence ratio of 0.9951 ± 0.0039.
With TGGTATAACG the switch fluorescence ratio was 0.964 ± 0.025.
For TGGTATGGTT, the switch fluorescence ratio was 0.996 ± 0.011.
Sequence TGGTATTTAT has a switch fluorescence ratio of 1.012 ± 0.0072.
TGGTATTTTA was tested, and the switch fluorescence ratio was 0.982 ± 0.028.
TGGTCAAATC was tested, and the switch fluorescence ratio was 1 ± 0.051.
TGGTCAGAGT was tested, and the switch fluorescence ratio was 1.01 ± 0.023.
TGGTCCTAGT was tested, and the switch fluorescence ratio was 0.975 ± 0.017.
TGGTCGCAGC gave a switch fluorescence ratio of 1.01 ± 0.018.
Sequence TGGTCTCTTT has a switch fluorescence ratio of 1 ± 0.039.
Work on TGGTCTTAGA yielded a switch fluorescence ratio of 1.01 ± 0.012.
In the case of TGGTCTTGTA, the switch fluorescence ratio is reported as 1.04 ± 0.021.
In the case of TGGTGAAAAG, the switch fluorescence ratio is reported as 0.97 ± 0.059.
With TGGTGACTGA the switch fluorescence ratio was 0.981 ± 0.011.
Sequence TGGTGAGGGG has a switch fluorescence ratio of 1.12 ± 0.24.
Sequence TGGTGAGTTT has a switch fluorescence ratio of 0.984 ± 0.019.
TGGTGATAGT was tested, and the switch fluorescence ratio was 0.965 ± 0.035.
Work on TGGTGATGGG yielded a switch fluorescence ratio of 0.9922 ± 0.0093.
TGGTGCAGGA was tested, and the switch fluorescence ratio was 0.9776 ± 0.0092.
For TGGTGCAGGG, the switch fluorescence ratio was 0.984 ± 0.015.
TGGTGCATGG showed a switch fluorescence ratio of 1.03 ± 0.024.
With TGGTGCCGGT the switch fluorescence ratio was 1.01 ± 0.041.
TGGTGCGCCC was tested, and the switch fluorescence ratio was 1.033 ± 0.0058.
Sequence TGGTGCTCAT has a switch fluorescence ratio of 0.994 ± 0.024.
Work on TGGTGGAATT yielded a switch fluorescence ratio of 1.02 ± 0.034.
TGGTGGACGT gave a switch fluorescence ratio of 0.997 ± 0.039.
For TGGTGGCCGG, the switch fluorescence ratio was 1.02 ± 0.019.
For TGGTGGGATC, the switch fluorescence ratio was 1.03 ± 0.025.
In the case of TGGTGGGGCA, the switch fluorescence ratio is reported as 0.977 ± 0.064.
TGGTGGGGGT showed a switch fluorescence ratio of 0.999 ± 0.028.
With TGGTGGGTAT the switch fluorescence ratio was 0.999 ± 0.024.
With TGGTGGGTTT the switch fluorescence ratio was 1 ± 0.029.
TGGTGGTATG was tested, and the switch fluorescence ratio was 1.01 ± 0.071.
TGGTGTCACG was tested, and the switch fluorescence ratio was 0.983 ± 0.017.
Sequence TGGTGTCGT has a switch fluorescence ratio of 1.01 ± 0.011.
Work on TGGTGTTGTC yielded a switch fluorescence ratio of 1.03 ± 0.033.
TGGTTAAAAT was tested, and the switch fluorescence ratio was 1 ± 0.025.
TGGTTAAATT showed a switch fluorescence ratio of 0.997 ± 0.033.
For TGGTTAACTG, the switch fluorescence ratio was 1.13 ± 0.16.
TGGTTACGCT showed a switch fluorescence ratio of 1.028 ± 0.0084.
TGGTTACTCG gave a switch fluorescence ratio of 0.984 ± 0.034.
TGGTTAGGG was tested, and the switch fluorescence ratio was 0.988 ± 0.019.
With TGGTTATAAT the switch fluorescence ratio was 0.992 ± 0.024.
TGGTTATTAC was tested, and the switch fluorescence ratio was 1.037 ± 0.0094.
Sequence TGGTTATTAT has a switch fluorescence ratio of 0.991 ± 0.015.
For TGGTTCGAT, the switch fluorescence ratio was 0.978 ± 0.015.
In the case of TGGTTCGGGG, the switch fluorescence ratio is reported as 0.96 ± 0.015.
TGGTTCGGTG showed a switch fluorescence ratio of 0.977 ± 0.016.
TGGTTGAAAA showed a switch fluorescence ratio of 0.875 ± 0.033.
TGGTTGAACC gave a switch fluorescence ratio of 1.03 ± 0.024.
TGGTTGAGAC was tested, and the switch fluorescence ratio was 0.988 ± 0.016.
TGGTTGATGA showed a switch fluorescence ratio of 0.98 ± 0.064.
For TGGTTGCGTG, the switch fluorescence ratio was 1 ± 0.015.
Sequence TGGTTGGGAG has a switch fluorescence ratio of 1.01 ± 0.035.
